The chains are these.
B1: OR4K15 (parent)
chain: GUUAACGGUCAUAGGCCAUGGAAACUAGGAGCACCAUUUCGCUGCCAGUGAAGAAAUGAACAAAGAAAAUCUGGGCCAGGCAGGCAUCAAAAGAAAUAGUCUUGCGCUCAACCAGAAAGUCUGUAAUCAUUUUAAGGGUA

Variants of B1 are the subject of the series. Description: self-cleavage, relative activity (ratio to wild type); higher = more cleavage; in vitro, sequencing; the parent is a self-cleaving ribozyme.
In the case of A22C U102C, the self-cleavage amounted to 2.42.

For A22G A62G, the self-cleavage turned out to be 1.12. A23G C105G: the self-cleavage was found to be 0.07. On to G20A U38C, for which the self-cleavage worked out at 1.72.

Consider G20A U38G, for which the self-cleavage amounted to 1.25. In the case of A22G U87A it was 1.28; in that of A22G U87C, 1.28. In the case of A22U A30C it was 0.38; in that of A22U A54U, 1.56. In the case of A22U A52G, the self-cleavage is 1.63. In the case of A22G U130C, the self-cleavage worked out at 0.3. A22G G29C: the self-cleavage was 2.4. For G21A A36G, the self-cleavage came out at 1.9. In the case of A22U U70C, the self-cleavage came to 0.9. For A22G A125U, the self-cleavage amounted to 1.32. Take A22U A62G: the self-cleavage stood at 1.98. Under A22U U39A stands 2.33; under A22G A126C, 0.67; under A22G G138U, 0.66. Consider G21U A118G, for which the self-cleavage was 1.98. Take A23C U70A: the self-cleavage is 1.48. Under A22G A47U stands 0.62; under A22G A47G, 1.34; under G20U U100C, 2.46.

As to G20U A129G, the self-cleavage was 1.17. For A23G A55U, the self-cleavage came to 0.86. Under A23G A55C stands 1.33.

Consider A22U U127C, for which the self-cleavage came to 1.13. As to A23G U108G, the self-cleavage is 0. For A23G U108C, the self-cleavage worked out at 0.03.

Consider G20U A68G, for which the self-cleavage stood at 1.59. Regarding A23G A82U, the self-cleavage was determined as 0.2. Take A23G A82C: the self-cleavage came to 0.09. Regarding A22G A90U, the self-cleavage was 2.02. For the variant A22G U39G, the self-cleavage was 1.41. Under A22C U139C stands 0.51; under A22G A69U, 1.28. For A22G A69G, the self-cleavage turned out to be 1.07. On to A23G A52G, for which the self-cleavage worked out at 1.13. In the case of A23G A52U it was 1.69; in that of A22G G75C, 0.37. Under A23G A118C stands 0.5; under A23G A54U, 1.5. With A22U U102C, the self-cleavage is 2.02. Regarding A22U U26C, the self-cleavage came out at 0.97.

In the case of A22U A82U, the self-cleavage worked out at 0.32. With A23U A68G, the self-cleavage was found to be 1.45. Turning to A22G A95G, the self-cleavage was determined as 1.75. Regarding G20U C77A, the self-cleavage was 0.73. A22U C76A: the self-cleavage is 0.16. On to A22U U130C, for which the self-cleavage worked out at 0.32. Under A22U A64G stands 1.62; under A22G G28A, 1.28. In the case of A22G G28C it was 1.42; in that of A23U A82G, 0.82; in that of A22U A47G, 1.13. For A22G A68C, the self-cleavage was 0.64. A22U U37C: the self-cleavage came out at 0.85. On to A22G A33C, for which the self-cleavage is 0.57. A22U A118G: the self-cleavage is 1.13. On to A22U A118U, for which the self-cleavage came out at 0.64. Under G21A A24G stands 1.35; under A23U A36U, 1.53; under A23G U102A, 0.82. Regarding A23G G28A, the self-cleavage amounted to 0.93. In the case of G20C A36G it was 2.25; in that of A23G U57A, 0.53. As for A23G U57C, the self-cleavage amounted to 1.04. A23G A56G: the self-cleavage was determined as 1.18. Take A22G U120C: the self-cleavage was 0.98. For the variant G20A A60U, the self-cleavage worked out at 1.92.

Turning to A23G A68G, the self-cleavage turned out to be 1.29. Under A22G C77U stands 1.62; under A23G A140U, 1.15. Regarding A23G A140G, the self-cleavage worked out at 1.61. For the variant A23G A140C, the self-cleavage amounted to 1.55. As for A23G A96G, the self-cleavage worked out at 0.92. In the case of G21U A52G it was 1.58. Regarding A23U A66U, the self-cleavage stood at 1.42. Take A22U G29A: the self-cleavage is 0.84. For the variant G20A A62G, the self-cleavage was 1.45. For A22G A118G, the self-cleavage was determined as 0.99. Take A23U A78U: the self-cleavage was 0.2. Under A23C U43C stands 1.86; under A22U A114G, 1.09; under A23C U132C, 1.51. A22U A33G: the self-cleavage was 0.56.

As for A23G A110C, the self-cleavage was 0.09. On to A23U A56G, for which the self-cleavage came to 1.29.

As for A23G G41A, the self-cleavage stood at 1.29.

Consider A22G U49A, for which the self-cleavage was 0.65. Turning to A23G C71U, the self-cleavage was 0.31.

Consider A22G U43C, for which the self-cleavage came out at 0.78. In the case of A22G U43A, the self-cleavage is 1.31. As to A23G A117C, the self-cleavage was 0.36. A23G A117U: the self-cleavage was 0.55. As to A23C U38C, the self-cleavage came out at 1.73.

In the case of G21A A52G, the self-cleavage was 1.57. In the case of A23G A36U it was 1.74; in that of A22G G137A, 1.63. Turning to A22G U124C, the self-cleavage was 0.38. For the variant A22G U124A, the self-cleavage stood at 1.29.

With A22U U122C, the self-cleavage is 1.37. A22U U122A: the self-cleavage is 1.33. Consider A23G U26A, for which the self-cleavage came out at 1.22. Under A23G U26C stands 1.42; under A23G U130C, 0.57; under A23U A67U, 1.91. Take A22G A63C: the self-cleavage was 1.25. As to A22G A63G, the self-cleavage amounted to 1.72. On to G21A U38G, for which the self-cleavage came out at 1.15. Under G21U U108A stands 0.02. In the case of A22U G99A it was 1.39; in that of A22G C107U, 0.06; in that of A23G A66G, 1.02.

On to A23G A66U, for which the self-cleavage amounted to 1.43. As for A23G C40U, the self-cleavage was determined as 1.37. Regarding A23U A69G, the self-cleavage amounted to 1.02.

As for A22G C88U, the self-cleavage is 2.1. For A22U U49C, the self-cleavage turned out to be 0.77. On to A23G C121U, for which the self-cleavage came out at 2.12. A22G A82C: the self-cleavage was found to be 0.25. On to A22G A82G, for which the self-cleavage came to 0.68. Regarding A23G U100C, the self-cleavage stood at 1.72.

As for A23G U100A, the self-cleavage came to 0.74. On to A22G A134G, for which the self-cleavage came to 1.02. Under A23G U97G stands 1.16. In the case of A22G U37C it was 1.68; in that of A22U A125G, 0.52. Under A22G A60U stands 0.77; under A23G A98G, 0.23; under G21A U120A, 1.28. On to A22G A114C, for which the self-cleavage came out at 0.03. On to A22G A114G, for which the self-cleavage was 0.69. Regarding A23G U70C, the self-cleavage came to 0.64. In the case of A23G U70A, the self-cleavage worked out at 0.97. In the case of G20C U124A it was 0.67; in that of A23G G44U, 1.21; in that of G20A U37C, 0.64. Take A22G A23U: the self-cleavage was 1.26. A22G A64G: the self-cleavage amounted to 1.31. Under A22G A64U stands 0.62; under A23G A89C, 1.98; under A23G A89U, 0.72. As to A22G G74A, the self-cleavage stood at 0.24. With A23G U72A, the self-cleavage is 0.23.

For A22G U103C, the self-cleavage is 0.98. As to A22G U70A, the self-cleavage was determined as 1.28. In the case of A23G A24U it was 1.72; in that of A23C A95G, 1.67. For A22U A110G, the self-cleavage was 0.12. G20U A111G: the self-cleavage turned out to be 0.04. As to A22G U131C, the self-cleavage turned out to be 0.51. In the case of G20U U130C it was 1.04; in that of A23G C45U, 1.23. As to G20U A67G, the self-cleavage stood at 1.24.

Take G20A U102C: the self-cleavage amounted to 2.1. Under G20A A126G stands 1.02. In the case of G21U U72A, the self-cleavage worked out at 0.4.

Turning to A22G A24C, the self-cleavage amounted to 0.56. A23G A91U: the self-cleavage was found to be 1.57.

Consider A22U A23U, for which the self-cleavage came out at 1.59.

With A22G U72C, the self-cleavage worked out at 0.33. In the case of A22G U72A it was 0.49; in that of A23G A63G, 1.01; in that of A22G U57A, 1.15. In the case of A23G A78G, the self-cleavage amounted to 0.29.

Values taken from the RNAGym collection of RNA variant scans (doi:10.7554/elife.90254).
